Results from the supplement of paper PMC10567573.

B1: MLH1 (parent)
chain: YNIATRRKALKNPSEEYGKILEVV
B2: PBXIP1 (parent)
chain: EKQKQPRWREGTKDSHDPLPSWAE

Variants of: B1
Assay: protein stability index of a GFP-peptide fusion (GPS, HEK-293T) (PSI 1-6); higher = more stable
Details: c terminus: a fixed tail appended
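Also: lentivirally expressed fusions sorted by FACS into six bins by GFP to DsRed ratio, PSI derived from sequencing read proportions per bin multiplied by bin number.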

Variant | protein stability index
YNIATRRVALKNPSEEYGKILEVV | 2.2
YNIATRRRALKNPSEEYGKILEVV | 2.85
YNIATRRFALKNPSEEYGKILEVV | 2.27
YNIATRRGALKNPSEEYGKILEVV | 3.37
YNIATRRCALKNPSEEYGKILEVV | 1.87
YNIATRRIALKNPSEEYGKILEVV | 2
YNIATRRWALKNPSEEYGKILEVV | 1.94
YNIATRREALKNPSEEYGKILEVV | 3.25
YNIATRRLALKNPSEEYGKILEVV | 1.99
YNIATRRDALKNPSEEYGKILEVV | 3.09
YNIATRRHALKNPSEEYGKILEVV | 2.48
YNIATRRKSLKNPSEEYGKILEVV | 2.93
YNIATRRKYLKNPSEEYGKILEVV | 2.09
YNIATRRKLLKNPSEEYGKILEVV | 2.17
YNIATRRKQLKNPSEEYGKILEVV | 2.55
YNIATRRKKLKNPSEEYGKILEVV | 2.71
YNIATRRKDLKNPSEEYGKILEVV | 3.2
YNIATRRKVLKNPSEEYGKILEVV | 2.55
YNIATRRKWLKNPSEEYGKILEVV | 2.75
YNIATRRKELKNPSEEYGKILEVV | 2.99
YNIATGRKALKNPSEEYGKILEVV | 2.76
YNIATYRKALKNPSEEYGKILEVV | 1.76
YNIATWRKALKNPSEEYGKILEVV | 1.96
YNIATVRKALKNPSEEYGKILEVV | 2.1
YNIATLRKALKNPSEEYGKILEVV | 1.79

Variant | protein stability index
YNIATKRKALKNPSEEYGKILEVV | 2.99
YNIATNRKALKNPSEEYGKILEVV | 2.85
YNIATCRKALKNPSEEYGKILEVV | 1.89
YNIATPRKALKNPSEEYGKILEVV | 3.15
YNIATSRKALKNPSEEYGKILEVV | 2.7
YNIATQRKALKNPSEEYGKILEVV | 2.82
YNIATDRKALKNPSEEYGKILEVV | 3.69
YNIATTRKALKNPSEEYGKILEVV | 2.32
YLIATRRKALKNPSEEYGKILEVV | 1.9
YCIATRRKALKNPSEEYGKILEVV | 2.18
YVIATRRKALKNPSEEYGKILEVV | 1.87
YMIATRRKALKNPSEEYGKILEVV | 1.85
YGIATRRKALKNPSEEYGKILEVV | 2.7
YDIATRRKALKNPSEEYGKILEVV | 3.14
YTIATRRKALKNPSEEYGKILEVV | 2.45
YRIATRRKALKNPSEEYGKILEVV | 2.5
YFIATRRKALKNPSEEYGKILEVV | 1.71
YHIATRRKALKNPSEEYGKILEVV | 2.07
YEIATRRKALKNPSEEYGKILEVV | 3.12
YYIATRRKALKNPSEEYGKILEVV | 2.43
YQIATRRKALKNPSEEYGKILEVV | 2.51
YNIYTRRKALKNPSEEYGKILEVV | 2.12
YNINTRRKALKNPSEEYGKILEVV | 3.27
YNIETRRKALKNPSEEYGKILEVV | 3
YNIHTRRKALKNPSEEYGKILEVV | 2.89

Variant | protein stability index
YNIITRRKALKNPSEEYGKILEVV | 2.54
YNIRTRRKALKNPSEEYGKILEVV | 2.97
YNIQTRRKALKNPSEEYGKILEVV | 2.57
YNIDTRRKALKNPSEEYGKILEVV | 3.15
YNIVTRRKALKNPSEEYGKILEVV | 2.49
YNIWTRRKALKNPSEEYGKILEVV | 1.83
YNICTRRKALKNPSEEYGKILEVV | 3.31
YNIAARRKALKNPSEEYGKILEVV | 2.54
YNIAWRRKALKNPSEEYGKILEVV | 1.83
YNIAFRRKALKNPSEEYGKILEVV | 2.27
YNIAERRKALKNPSEEYGKILEVV | 3.54
YNIALRRKALKNPSEEYGKILEVV | 2.85
YNIACRRKALKNPSEEYGKILEVV | 2.17
YNIANRRKALKNPSEEYGKILEVV | 2.57
YNIAVRRKALKNPSEEYGKILEVV | 3.09
YNIAGRRKALKNPSEEYGKILEVV | 2.82
YNIAIRRKALKNPSEEYGKILEVV | 2.17
YNIAPRRKALKNPSEEYGKILEVV | 2.82
YNIAYRRKALKNPSEEYGKILEVV | 2
YNIADRRKALKNPSEEYGKILEVV | 3.06
YNIASRRKALKNPSEEYGKILEVV | 3.03
YNIATRRKALINPSEEYGKILEVV | 2.04
YNIATRRKALVNPSEEYGKILEVV | 2.53
YNIATRRKALENPSEEYGKILEVV | 3.48
YNIATRRKALWNPSEEYGKILEVV | 2.19

Variant | protein stability index
YNIATRRKALFNPSEEYGKILEVV | 1.95
YNIATRRKALSNPSEEYGKILEVV | 2.48
YNIATRRKALNNPSEEYGKILEVV | 2.69
YNIATRRKALMNPSEEYGKILEVV | 2.85
YNIATRRKALLNPSEEYGKILEVV | 2.43
YNIATRHKALKNPSEEYGKILEVV | 2.69
YNIATRAKALKNPSEEYGKILEVV | 2.5
YNIATRCKALKNPSEEYGKILEVV | 2.37
YNIATRPKALKNPSEEYGKILEVV | 3.14
YNIATRWKALKNPSEEYGKILEVV | 1.78
YNIATRGKALKNPSEEYGKILEVV | 2.78
YNIATRTKALKNPSEEYGKILEVV | 2.95
YNIATREKALKNPSEEYGKILEVV | 3.66
YNIATRKKALKNPSEEYGKILEVV | 2.48
YNIATRVKALKNPSEEYGKILEVV | 2.39
YNIATRDKALKNPSEEYGKILEVV | 2.84
YNIATRRKALKGPSEEYGKILEVV | 2.71
YNIATRRKALKAPSEEYGKILEVV | 2.55
YNIATRRKALKDPSEEYGKILEVV | 3.32
YNIATRRKALKHPSEEYGKILEVV | 2.74
YNIATRRKALKEPSEEYGKILEVV | 3.35
YNIATRRKALKRPSEEYGKILEVV | 3.3
YNIATRRKALKYPSEEYGKILEVV | 2.53
YNIATRRKALKWPSEEYGKILEVV | 1.94
YNIATRRKALKVPSEEYGKILEVV | 1.98

Variant | protein stability index
YNIATRRKALKFPSEEYGKILEVV | 1.97
YNIATRRKALKPPSEEYGKILEVV | 3.11
YNIATRRKALKSPSEEYGKILEVV | 2.76
YNIATRRKALKNPSGEYGKILEVV | 1.76
YNIATRRKALKNPSFEYGKILEVV | 2.29
YNIATRRKALKNPSCEYGKILEVV | 2.17
YNIATRRKALKNPSDEYGKILEVV | 2.7
YNIATRRKALKNPSHEYGKILEVV | 2.43
YNIATRRKALKNPSAEYGKILEVV | 2.1
YNIATRRKATKNPSEEYGKILEVV | 3.14
YNIATRRKAGKNPSEEYGKILEVV | 2.99
YNIATRRKAHKNPSEEYGKILEVV | 3
YNIATRRKARKNPSEEYGKILEVV | 3.13
YNIATRRKAKKNPSEEYGKILEVV | 3.31
YNIATRRKAEKNPSEEYGKILEVV | 3.53
YNIATRRKAFKNPSEEYGKILEVV | 3.02
YNIATRRKAAKNPSEEYGKILEVV | 3.09
YNIATRRKACKNPSEEYGKILEVV | 2.84
YNIATRRKAVKNPSEEYGKILEVV | 3.07
YNIATRRKAIKNPSEEYGKILEVV | 3.22
YNIATRRKAPKNPSEEYGKILEVV | 3.23
YNIATRRKAMKNPSEEYGKILEVV | 2.86
YNGATRRKALKNPSEEYGKILEVV | 2.97
YNEATRRKALKNPSEEYGKILEVV | 2.74
YNHATRRKALKNPSEEYGKILEVV | 2.69

Variant | protein stability index
YNFATRRKALKNPSEEYGKILEVV | 2.85
YNQATRRKALKNPSEEYGKILEVV | 3.41
YNMATRRKALKNPSEEYGKILEVV | 3.08
YNDATRRKALKNPSEEYGKILEVV | 3.19
YNRATRRKALKNPSEEYGKILEVV | 2.71
YNCATRRKALKNPSEEYGKILEVV | 2.69
YNNATRRKALKNPSEEYGKILEVV | 3.29
YNSATRRKALKNPSEEYGKILEVV | 3
YNAATRRKALKNPSEEYGKILEVV | 3.11
YNKATRRKALKNPSEEYGKILEVV | 2.98
YNPATRRKALKNPSEEYGKILEVV | 3.14
NNIATRRKALKNPSEEYGKILEVV | 3.35
MNIATRRKALKNPSEEYGKILEVV | 2.76
KNIATRRKALKNPSEEYGKILEVV | 3.52
DNIATRRKALKNPSEEYGKILEVV | 3.69
VNIATRRKALKNPSEEYGKILEVV | 2.76
SNIATRRKALKNPSEEYGKILEVV | 3.29
ANIATRRKALKNPSEEYGKILEVV | 3.18
WNIATRRKALKNPSEEYGKILEVV | 2.86
QNIATRRKALKNPSEEYGKILEVV | 3.6
FNIATRRKALKNPSEEYGKILEVV | 2.43
INIATRRKALKNPSEEYGKILEVV | 2.48
ENIATRRKALKNPSEEYGKILEVV | 3.55
YNIATRRKALKNPEEEYGKILEVV | 3.56
YNIATRRKALKNPREEYGKILEVV | 2.94

Variant | protein stability index
YNIATRRKALKNPDEEYGKILEVV | 2.98
YNIATRRKALKNPNEEYGKILEVV | 2.71
YNIATRRKALKNPAEEYGKILEVV | 2.98
YNIATRRKALKNPWEEYGKILEVV | 1.43
YNIATRRKALKNPLEEYGKILEVV | 1.78
YNIATRRKALKNPQEEYGKILEVV | 2.79
YNIATRRKALKNPFEEYGKILEVV | 2.01
YNIATRRKALKNPTEEYGKILEVV | 2.85
YNIATRRKALKNCSEEYGKILEVV | 3.26
YNIATRRKALKNFSEEYGKILEVV | 1.96
YNIATRRKALKNHSEEYGKILEVV | 2.94
YNIATRRKALKNKSEEYGKILEVV | 3.19
YNIATRRKALKNISEEYGKILEVV | 2.15
YNIATRRKALKNRSEEYGKILEVV | 2.78
YNIATRRKALKNWSEEYGKILEVV | 2.66
YNIATRRKALKNMSEEYGKILEVV | 2.27
YNIATRRKALKNNSEEYGKILEVV | 2.99
YNIATRRKALKNSSEEYGKILEVV | 3.05
YNIATRRKALKNTSEEYGKILEVV | 2.89
YNIATRRKALKNYSEEYGKILEVV | 2.59

Variants of: B2
Assay: as above
Details: c terminus: a fixed tail appended

Variant | protein stability index
EKQKQPRWREGTKDSHDPLPSWAY | 3.09
EKQKQPRWREGTKDSHDPLPSWAT | 2.39
EKQKQPRWREGTKDSHDPLPSWAW | 1.95
EKQKQPRWREGTKDSHDPLPSWAA | 2.62
EKQKQPRWREGTKDSHDPLPSWAC | 2.66
EKQKQPRWREGTKDSHDPLPSWAM | 3.16
EKQKQPRWREGTKDSHDPLPSWAS | 2.34
EKQKQPRWREGTKDSHDPLPSWAR | 3.34
EKQKQPRWREGTKDSHDPLPSWAP | 4.12
EKQKQPRWREGTKDSHDPLPSWAL | 3.02
EKQKQPRWREGTKDSHDPLPSWAI | 3.06
EKQKQPRWREGTKDSHDPLPSWAK | 2.89
EKQKQPRWREGTKDSHDPLPSWAF | 3.11
EKQKQPRWREGTKDSHDPLPSWAN | 3.02
EKQKQPRWREGTKDSHDPLPSWAH | 3.29
EKQKQPRWREGTKDSHDPLPSWAD | 1.9
EKQKQPRWREGTKDSHDPLPSWWE | 2.76
EKQKQPRWREGTKDSHDPLPSWYE | 4.24
